T1: human APRIL protein (human, UniProt O75888 105-250, limits assumed)
T1 construct: Bought protein; also called recombinant APRIL protein
T1 sequence (looked up): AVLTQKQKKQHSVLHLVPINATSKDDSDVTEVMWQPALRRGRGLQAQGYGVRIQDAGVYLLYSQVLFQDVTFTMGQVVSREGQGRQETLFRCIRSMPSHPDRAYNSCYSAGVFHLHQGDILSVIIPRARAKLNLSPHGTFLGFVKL

T2: cynomolgus BLyS (full length, arginine to histidine at position 132) on CHO-K1 cells (cynomolgus, UniProt Q9Y275 1-285 (human entry))
T2 construct: also called cyno BLyS; CHO-K1 cynoBLyS
T2 chain: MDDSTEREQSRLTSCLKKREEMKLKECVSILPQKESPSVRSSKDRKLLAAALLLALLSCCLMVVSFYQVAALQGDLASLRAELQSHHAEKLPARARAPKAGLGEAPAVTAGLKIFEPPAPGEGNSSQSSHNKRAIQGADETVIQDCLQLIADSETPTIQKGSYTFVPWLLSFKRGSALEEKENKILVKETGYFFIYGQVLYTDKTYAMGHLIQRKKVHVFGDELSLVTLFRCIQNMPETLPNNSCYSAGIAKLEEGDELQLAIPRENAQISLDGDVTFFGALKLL


Key:
human APRIL protein [1] = molecular target: T1, human APRIL protein; assay: ELISA, coated APRIL; antibody 0.0213 nM
Summary of the method: (§1)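 Anti-BLyS antibodies were tested for cross-reactivity on human APRIL coated at 1.0 μg/mL in PBS overnight at 4 °C, blocked with PBS/0.05% Tween20/1% BSA at 37 °C for 2 h. Antibodies were incubated 1 h at 37 °C, then HRP secondary 1 h at 37 °C; TMB 5 min at RT, HCl stop, A450 read.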

mouse BLyS protein = mouse BLyS protein (mouse, UniProt Q9WU72 69-309); assay: cell-based or functional assay
human APRIL protein [2] = molecular target: T1, human APRIL protein; assay: ELISA, coated APRIL; antibody 0.00427 nM
Summary of the method: as §1

human APRIL protein [3] = molecular target: T1, human APRIL protein; assay: ELISA, coated APRIL; antibody 0.107 nM
Summary of the method: as §1

human APRIL protein [4] = molecular target: T1, human APRIL protein; assay: ELISA, coated APRIL; antibody 2.67 nM
Summary of the method: as §1

[5] = molecular target: T3, human BLyS (full length, arginine to histidine at position 132) on CHO-K1 cells (human, UniProt Q9Y275 1-285); assay: flow cytometry, CHO-K1 hBLyS cells, antibody 0.107 nM
T3 construct: also called hBLyS; CHO-K1 hBLyS
Protocol: (§2) The medium was aspirated completely, and the cells were rinsed once with PBS buffer (purchased from Invitrogen) and then treated with cell dispersion solution (TrypLE™ Express Enzyme, purchased from Life technology) and collected. The detailed steps are as follows: the cells were rinsed once with PBS buffer, after counting, the cells were diluted to 2×10⁶ cells/ml with PBS buffer, blocked with 2% (w/w) fetal bovine serum and incubated on ice for 30 minutes. 200 μL of which per well was aliquoted into a 96-well FACS plate and centrifuged at 2000 rpm at 4° C., then each 100 μL of the lead antibodies obtained from Embodiment 1 and 2 were aliquoted into each well and incubated on ice for 1 hour. […] After centrifuged and rinsed 3 times with FACS buffer, cells were suspended with 200 μL of FACS buffer and the results were detected and analyzed by FACS (FACS Calibur, purchased from BD). It was shown in Tables 12-13 that the lead antibody could bind to human BLyS protein on the cell surface and the lead antibody could cross-react with cynomolgus BLyS. The data in the table is MFI, the average fluorescence intensity of the cell population.

[6] = molecular target: T3, human BLyS (full length, arginine to …); assay: flow cytometry, CHO-K1 hBLyS cells, antibody 66.7 nM
Protocol: as §2

[7] = molecular target: T2, cynomolgus BLyS (full length, arginine …); assay: flow cytometry, CHO-K1 cynoBLyS cells, antibody 0.534 nM
Protocol: as §2

[8] = molecular target: T3, human BLyS (full length, arginine to …); assay: flow cytometry, CHO-K1 hBLyS cells, antibody 2.67 nM
Protocol: as §2

[9] = molecular target: T2, cynomolgus BLyS (full length, arginine …); assay: flow cytometry, CHO-K1 cynoBLyS cells, antibody 66.7 nM
Protocol: as §2

[10] = molecular target: T3, human BLyS (full length, arginine to …); assay: flow cytometry, CHO-K1 hBLyS cells, antibody 13.3 nM
Protocol: as §2

[11] = molecular target: T2, cynomolgus BLyS (full length, arginine …); assay: flow cytometry, CHO-K1 cynoBLyS cells, antibody 13.3 nM
Protocol: as §2

[12] = molecular target: T3, human BLyS (full length, arginine to …); assay: flow cytometry, CHO-K1 hBLyS cells, antibody 0.534 nM
Protocol: as §2

mouse BLyS protein, sequence (Q9WU72 69-309): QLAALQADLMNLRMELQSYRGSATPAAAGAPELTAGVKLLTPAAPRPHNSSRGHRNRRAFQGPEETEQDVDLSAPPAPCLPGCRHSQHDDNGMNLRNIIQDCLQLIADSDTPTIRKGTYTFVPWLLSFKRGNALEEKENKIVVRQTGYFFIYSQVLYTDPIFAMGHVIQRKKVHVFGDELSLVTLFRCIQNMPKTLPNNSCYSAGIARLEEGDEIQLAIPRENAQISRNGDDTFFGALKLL
T3 sequence (Q9Y275 whole entry R130H): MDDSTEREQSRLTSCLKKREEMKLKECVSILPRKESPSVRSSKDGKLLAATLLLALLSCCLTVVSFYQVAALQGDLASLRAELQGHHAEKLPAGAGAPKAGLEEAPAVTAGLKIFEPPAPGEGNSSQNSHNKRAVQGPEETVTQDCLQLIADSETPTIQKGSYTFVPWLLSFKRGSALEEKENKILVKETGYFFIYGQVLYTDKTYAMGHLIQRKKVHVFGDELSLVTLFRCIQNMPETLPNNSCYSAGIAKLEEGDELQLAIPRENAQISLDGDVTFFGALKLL

OD450 nm (human APRIL protein [1])	mouse B lymphocyte proliferation (OD450 nm), antibody 0 nM (mouse BLyS protein)	mouse B lymphocyte proliferation (OD450 nm), antibody 0.000256 nM (mouse BLyS protein)	mouse B lymphocyte proliferation (OD450 nm), antibody 0.00128 nM (mouse BLyS protein)	mouse B lymphocyte proliferation (OD450 nm), antibody 0.0064 nM (mouse BLyS protein)	mouse B lymphocyte proliferation (OD450 nm), antibody 0.032 nM (mouse BLyS protein)	mouse B lymphocyte proliferation (OD450 nm), antibody 0.16 nM (mouse BLyS protein)	mouse B lymphocyte proliferation (OD450 nm), antibody 0.8 nM (mouse BLyS protein)	mouse B lymphocyte proliferation (OD450 nm), antibody 4 nM (mouse BLyS protein)	mouse B lymphocyte proliferation (OD450 nm), antibody 20 nM (mouse BLyS protein)	mouse B lymphocyte proliferation (OD450 nm), antibody 100 nM (mouse BLyS protein)	OD450 nm (human APRIL protein [2])	OD450 nm (human APRIL protein [3])	OD450 nm (human APRIL protein [4])	further results	Molecule
0.0537	2190 OD450 nm	2110	2270 OD450 nm	2420 OD450 nm	2320 OD450 nm	2330 OD450 nm	2520 OD450 nm	2440 OD450 nm	2360 OD450 nm	2350 OD450 nm	0.0587	0.0533	0.0558		mIgG Control (antibody)
0.0804	2220 OD450 nm	2220	2240 OD450 nm	2460 OD450 nm	2500 OD450 nm	2440 OD450 nm	2510 OD450 nm	2580 OD450 nm	2600 OD450 nm	2670 OD450 nm	0.0693	0.0722	0.128		hIgG Control (antibody)
	2100 OD450 nm	2220 OD450 nm	2240 OD450 nm	2250 OD450 nm	2320 OD450 nm	2350 OD450 nm	2300 OD450 nm	2440 OD450 nm	2350 OD450 nm	2360 OD450 nm				MFI [5]: 282 MFI; MFI [6]: 596 MFI; MFI [7]: 1050 MFI; MFI [8]: 532 MFI; MFI [9]: 1170 MFI; MFI [10]: 570 MFI; MFI [11]: 1170 MFI; MFI [12]: 504 MFI	8E7D9C7F5 (antibody, V domains shown, Mouse hybridoma monoclonal antibody purified on Protein G) VH: QVQLQQSGVELARPGASVKLSCKASGYTFTSYGISWVKQRTGQALEWIGEIYPRSGNTYYNEKFKGKATLTADKSSSTAYMELRSLTSEDSAVYFCARSGPITTLVATDYGMDYWGQGTSVTVSS VL: DIVLTQSPASLAVSLGQRATISCRASKSVSTSSYSYMHWYQQKPGQPPKLLIKFASNLESGVPARFSGSGSGTDFTLNIHPVEEEDAATYYCQHSREFPYTFGGGTKLEIK
	2120 OD450 nm	2300 OD450 nm	2150 OD450 nm	2130 OD450 nm	2320 OD450 nm	2290 OD450 nm	2520 OD450 nm	2710 OD450 nm	2540 OD450 nm	2360 OD450 nm				MFI [5]: 150 MFI; MFI [6]: 296 MFI; MFI [7]: 478 MFI; MFI [8]: 265 MFI; MFI [9]: 539 MFI; MFI [10]: 276 MFI; MFI [11]: 524 MFI; MFI [12]: 247 MFI	111D10D6G3 (antibody, V domains shown, Mouse hybridoma monoclonal antibody purified on Protein G) VH: QVQLQQPGAELVKPGASVKMSCKASGYTFTRHWITWVKQRPGQGLEWIGDIFPGSGSINYNEKFKSEATLTVEKSSSTAYMQLSSLTSEDSAVYYCARGDVDVWGTGTTVTVSS VL: DIQMTQSPSSLSASLGERVSLTCRASQEIRGYLSWLQQKPNGTIKRLIYAASTLDSGVPKRFSATRSGSDFSLTISSLESEDFADYYCLQYASYPFTFGSGTKLEIK
0.0559											0.0625	0.0561	0.0617		97A3C2H4 (antibody, V domains shown, Mouse hybridoma antibody purified on Protein G) VH: EVKLVESGGGLVQPGGSLKLSCAASGFTFSTYTMSWVRQTPEKRLEWVAYISYGGGSTSYPDTVKGRFTISRDNAKNTLYLQMSSLKSEDTAIYYCTRHVTVVENSMDYWGQGTSVTVSS VL: DILLTQSPDILSVSPGERVSFSCRASQSIGTSIHWYQQRTNGSPRLLIKYVSESFSGTPSRFSGSGSGTAFTLTINSVESEDIADYYCQQTHSWPWTFGGGTKLEIK
0.0549											0.0538	0.0536	0.0583		111D10D6G3 (antibody, V domains shown, Mouse hybridoma antibody purified on Protein G) VH: QVQLQQPGAELVKPGASVKMSCKASGYTFTRHWITWVKQRPGQGLEWIGDIFPGSGSINYNEKFKSEATLTVEKSSSTAYMQLSSLTSEDSAVYYCARGDVDVWGTGTTVTVSS VL: DIQMTQSPSSLSASLGERVSLTCRASQEIRGYLSWLQQKPNGTIKRLIYAASTLDSGVPKRFSATRSGSDFSLTISSLESEDFADYYCLQYASYPFTFGSGTKLEIK
0.0777											0.161	0.0861	0.0751		L9G7 (antibody, human IgG1, V domains shown) VH: QIQLVQSGAEVKKPGASVKVSCKASGYTFTSYGISWVRQAPGQGLEWMGWISAYNGNTNYAQKLQGRVTMTTDTSTSTAYMELRSLRSDDTAVYYCARTYYDILTGYYYYGMDVWGQGTTVTVSS VL: EIVLTQSPGTLSLSPGERATLSCRTSQSVDTYLAWYQQKPGQAPRLLIYDASNRATGIPARFSGSGSGTDFTLTISSLEPEDFAVYYCQQRSNWPLTFGGGTKVEIK
0.0854											0.121	0.0678	0.102		L1D12 (antibody, human IgG1, V domains shown, also called LID12) VH: QVQLVQSGGGLVQPGGSLRLSCAASGFTVSSNYMSWVRQAPGKGLEWVSVIYSGGSTYYADSVKGRFTISRDNSKNTLYLQMNSLRAEDTAVYYCARGFHDILTGYGMDVWGQGTTVTVSS VL: SSELTQDPAVSVALGQTVRITCQGDSLRNYYAGWYQQKPGQAPVLVIYGKNNRPSGIPDRFSGSSSGNTASLTITGTQAEDEADYYCSSRDNSGTHLVEFGGGTKLTVL
